In PMC7057333 (ACS Omega, 2020):
Numbered stars: 1 amine (or outer) side, 2 acyl side, 3 side chain; on linkers, the order of the positions; unused ones are H or OH. Bridge positions count the residues as written; N and C are the ends. Square brackets hold non-standard residues; d marks the D form. Ends that are not written are not given here. dNle(6-ylidene) = O=C([C@@H](CCCC=[*:3])N[*:1])[*:2]; Gly(pent-4-enyl) = C=CCCC[C@H](N)C(=O)O; Lys(N3) = [N-]=[N+]=NCCCC[C@H](N)C(=O)O; hPhe = N[C@@H](CCc1ccccc1)C(=O)O; Cit = NC(=O)NCCC[C@H](N)C(=O)O; AllylGly = C=CC[C@H](N)C(=O)O; Aoc(2) = CCCCCC[C@H](N)C(=O)O; Pra = C#CC[C@H](N)C(=O)O

B1: peptide 22, linear precursor of 23 (pentenylglycine at positions 3 and 6 of H3_(1-11) K4M) (peptide)
chain: AR[Gly(pent-4-enyl)]MQ[Gly(pent-4-enyl)]ARKST-NH2
B2: stapled macrocycle 26 (stereoisomer of 23, D-pentenyl glycine at 3 and 6) (peptide)
chain: AR[dNle(6-ylidene)]MQ[dNle(6-ylidene)]ARKST-NH2
modifications: staple 3-6
B3: stapled macrocycle 23 (8-carbon olefin bridge between residues 3 and 6) (peptide)
chain: AR[Gly(pent-4-enyl)]MQ[Gly(pent-4-enyl)]ARKST-NH2
modifications: staple 3-6
B4: peptide 18, linear precursor of 19 (allylglycine at positions 1 and 3 of H3_(1-11) K4M) (peptide)
chain: [AllylGly]R[AllylGly]MQTARKST-NH2
B5: stapled peptide 21 (Thr3-Thr6 cyclization, 4-carbon olefin bridge) (peptide)
chain: AR[AllylGly]MQ[AllylGly]ARKST-NH2
modifications: staple 3-6
B6: stapled peptide 19 (Ala1-Thr3 cyclization, 4-carbon olefin bridge) (peptide)
chain: [AllylGly]R[AllylGly]MQTARKST-NH2
modifications: staple 1-3
B7: A1P-substituted H3_(1-11) K4M (peptide 11) (peptide)
peptide: PRTMQTARKST-NH2
B8: lactam 34 (Arg8Cit-substituted analogue of peptide 28) (peptide)
chain: AREMQKA[Cit]KST-NH2
modifications: lactam 3-6
B9: triazole 35 (triazole-bridged H3_(1-11) K4M, azidolysine at 3, propargylglycine at 6) (peptide)
chain: AR[Lys(N3)]MQ[Pra]ARKST-NH2
modifications: triazole 3-6
B10: triazole 36 (triazole-bridged H3_(1-11) K4M, propargylglycine at 3, azidolysine at 6) (peptide)
chain: AR[Pra]MQ[Lys(N3)]ARKST-NH2
modifications: triazole 3-6
B11: lactam 33 (Arg2Cit-substituted analogue of peptide 28) (peptide)
chain: A[Cit]EMQKARKST-NH2
modifications: lactam 3-6
B12: H3_(1-11) K4M (peptide 4) (peptide)
peptide: ARTMQTARKST
B13: H3_(1-13) K4M (peptide 3) (peptide)
peptide: ARTMQTARKSTGG
B14: H3_(1-7) K4M (peptide 6) (peptide)
peptide: ARTMQTA
B15: H3_(2-21) K4M (peptide 7) (peptide)
peptide: Ac-RTMQTARKSTGGKAPRKQLA
B16: H3_(1-9) K4M (peptide 5) (peptide)
peptide: ARTMQTARK
B17: H3_(1-11) K4 (peptide 9), wild-type 11-mer (peptide)
peptide: ARTKQTARKST-NH2
B18: H3_(1-15) K4M (peptide 2) (peptide)
peptide: ARTMQTARKSTGGKA
B19: H3_(1-11) with 2-S-amino octanoic acid at position 4 (peptide 16) (peptide)
chain: ART[Aoc(2)]QTARKST-NH2
B20: H3_(1-11) with L-homophenylalanine at position 4 (peptide 17) (peptide)
chain: ART[hPhe]QTARKST-NH2

What follows are binders tested against T1, LSD1_(172-833), lysine-specific demethylase 1 (human, UniProt O60341-1 172-833) (assay: cell-based or functional assay). Conditions: not given.
B1 was tested, and the “% inhibition of LSD1 demethylase activity at 100 μM peptide” value (from here on “% inhibition”) was 100%.
For B2, the “% inhibition” value was 90%.
B3 was tested, and the “% inhibition” value was 75%.
B4 was tested, and the “% inhibition” value was 98%.
In the case of B5, the “% inhibition” value is reported as 95%.
With B6 the “% inhibition” value was 100%.

What follows are binders tested against T2, LSD1_(172-833), lysine-specific demethylase 1 (human, UniProt O60341-1 172-833) (assay: enzyme inhibition kinetics (HRP-coupled fluorescence demethylation assay); 25 nM LSD1, substrate H3K4me1_(1-21), 25 mM Tris, 50 mM NaCl, 0.1 mg/mL BSA, pH 8, 1% DMSO; Ki by global fit of competitive inhibition for 1, 11, 24, 28, 31, 33, 34, else from IC50 by Cheng-Prusoff (substrate 20 μM)). Conditions: both partners purified.
B7 gave a Ki of 8 µM.

The binders below were run against T1, LSD1_(172-833), lysine-specific … in the same assay as above. Conditions: both partners purified.
In the case of B8, the Ki is reported as 8 µM.
For B9, the Ki was > 100 µM.
B10 was tested, and the Ki was 30 µM.
Work on B11 yielded a Ki of 4.2 µM.

The binders below were run against T2, LSD1_(172-833), lysine-specific … (assay: cell-based or functional assay). Conditions: not given.
With B12 the “IC50 of inhibition of LSD1 demethylation of H3_(1-21) K4(Me), enzyme activity assay” value was > 100 µM.

Each binder was assayed against T2, LSD1_(172-833), lysine-specific … (assay: SPR; LSD1 immobilised by amine coupling on CM5 (12 000-15 000 RU), peptides injected; TBS-T (25 mM Tris, 150 mM HCl as printed, 0.05% Tween-20, 1 mM DTT, pH 8.0), 15 °C; 1:1 Langmuir model or steady state; highest tested concentration 200 μM). Conditions: both partners purified.
B13 was tested, and the Kd was 36 µM.
With B14 the Kd was > 200 µM.
B15 showed a Kd of 45 µM.
In the case of B16, the Kd is reported as > 200 µM.
B17 was tested, and the Kd was > 100 µM.
In the case of B18, the Kd is reported as 5 µM.

What follows are binders tested against T1, LSD1_(172-833), lysine-specific … in the same assay as above. Conditions: both partners purified.
With B19 the Kd was > 200 µM.
In the case of B20, the Kd is reported as > 200 µM.

Molecular target: T2, LSD1_(172-833), lysine-specific …
Test: as above
Conditions: both partners purified
Remark: another data set of the same source
For B7, the Kd was 10 µM.

Molecular target: T1, LSD1_(172-833), lysine-specific …
Test: cell-based or functional assay
Conditions: not given
Remark: another data set of the same source
With B8 the “% inhibition” value was 97%.
With B9 the “% inhibition” value was < 30%.
In the case of B10, the “% inhibition” value is reported as 70%.
With B11 the “% inhibition” value was 97%.
